From PMC7072198, “An Epitope on EGFR Loading Catastrophic Internalization Serve as a Novel Oncotarget for Hepatocellular Carcinoma Therapy” (Cancers, 2020)

Molecular target: T1, EGFR extracellular domain (ECD), wild type (human, UniProt P00533 25-645)
T1 construct: Epidermal growth factor receptor, human, extracellular domain; The Biacore legend and methods say only 'recombinant human EGFR' / 'EGFR protein'; also called EGFR ECD; EGFR ectodomain
Assay: ITC; MicroCal VP-ITC; nineteen 3 μL aliquots of 400 μM rLZ-8 injected into 20 μM EGFR ectodomain; single site binding model
Details: both partners purified

- stoichiometry N: 2 rLZ-8 per EGFR ECD
B1: recombinant Lingzhi-8 (rLZ-8), wild type (natural protein, Ganoderma lucidum, UniProt P14945 1-111, looked up)
chain: MSDTALIFRLAWDVKKLSFDYTPNWGRGNPNNFIDTVTFPKVLTDKAYTYRVAVSGRNLGVKPSYAVESDGSQKVNFLEYNSGYGIADTNTIQVFVVDPDTNNDFIIAQWN
notes: Lingzhi-8 (LZ-8) from Ganoderma lucidum, codon-optimised synthetic gene; Fluorescently labelled (red/green) in the cell experiments; also called rLZ-8^wt; source: Pichia pastoris X33 (pGAPZα A vector), culture supernatant, purified
